Assay [1] addresses SIY-loaded H-2 K^bm3 on T2 K^bm3 cells (murine). The assay is described as follows: flow cytometry on peptide-loaded T2 K^bm3 cells. (In general: In flow cytometry, cells or beads pass a laser one at a time.)
Assay [2] deals with QL9-loaded H-2 L^d (murine) (UniProt P01897). The assay is described as follows: direct flow cytometry on peptide-loaded RMAS-L^d cells.
The target is the same in assay [3]. In words: flow cytometry on cells loaded with a titration of peptide; lower end of the titration.
The target of assay [4] is p2Ca-loaded H-2 L^d (murine) (UniProt P01897). The assay is described as above.
Assay [5] has the same target. In words: flow cytometry on cells loaded with a titration of peptide; upper end of the titration.
Assay [6] deals with QL9-loaded H-2 L^d (murine) (UniProt P01897). In words: direct flow cytometry on peptide-loaded RMA-S L^d cells, serial dilutions, detected with H57-FITC.
Assay [7] has as its target SIY-loaded H-2 K^b on T2 K^b cells (murine) (UniProt P01901). In words: cell-based or functional assay.
Assay [8] has as its target SIY-loaded H-2 K^bm3 on T2 K^bm3 cells (murine). In words: cell-based or functional assay.
Assay [9] has as its target dEV-8-loaded H-2 K^bm3 on T2 K^bm3 cells (murine). In words: cell-based or functional assay.
Assay [10] deals with p2Ca-loaded H-2 L^d (murine) (UniProt P01897). The assay is described as follows: cell-based or functional assay.
Assay [11] concerns the target unloaded H-2 L^d on RMA-S L^d cells (no peptide added) (murine) (UniProt P01897). The assay is described as follows: direct flow cytometry on RMA-S L^d cells without added peptide.
Assay [12] deals with H-2 L^d on RENCA cells, naturally loaded (murine) (UniProt P01897). The assay is described as follows: flow cytometry on RENCA cells cultured with 5-50 units/ml γ-IFN.

Several values for one entry are separate records, joined by “and”; a condition that tells them apart may be missing. Equal entries are not always repeated. A value given as a limit tells only on which side of the number the result lay.

Chain of 2C TCR on 2C CTL (A2KF29 whole entry): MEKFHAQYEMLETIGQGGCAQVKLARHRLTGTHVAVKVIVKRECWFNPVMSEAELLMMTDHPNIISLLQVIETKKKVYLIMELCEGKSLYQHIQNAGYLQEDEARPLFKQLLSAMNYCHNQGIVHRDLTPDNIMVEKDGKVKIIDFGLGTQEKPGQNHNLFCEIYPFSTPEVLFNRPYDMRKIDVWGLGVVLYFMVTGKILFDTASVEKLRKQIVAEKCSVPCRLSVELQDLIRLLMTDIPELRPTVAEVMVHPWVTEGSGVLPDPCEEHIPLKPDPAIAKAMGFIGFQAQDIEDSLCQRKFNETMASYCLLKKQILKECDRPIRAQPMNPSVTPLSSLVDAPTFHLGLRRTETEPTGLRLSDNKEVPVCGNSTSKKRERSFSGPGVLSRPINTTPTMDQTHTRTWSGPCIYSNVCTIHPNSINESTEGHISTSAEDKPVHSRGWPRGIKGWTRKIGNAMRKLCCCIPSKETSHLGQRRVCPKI
Chain of soluble divalent 2C TCR/Ig (A2KF29 whole entry, looked up, tested part not stated): as the sequence (A2KF29 whole entry) above
Chain of p2Ca-loaded H-2 L^d (murine) (P01897 25-362): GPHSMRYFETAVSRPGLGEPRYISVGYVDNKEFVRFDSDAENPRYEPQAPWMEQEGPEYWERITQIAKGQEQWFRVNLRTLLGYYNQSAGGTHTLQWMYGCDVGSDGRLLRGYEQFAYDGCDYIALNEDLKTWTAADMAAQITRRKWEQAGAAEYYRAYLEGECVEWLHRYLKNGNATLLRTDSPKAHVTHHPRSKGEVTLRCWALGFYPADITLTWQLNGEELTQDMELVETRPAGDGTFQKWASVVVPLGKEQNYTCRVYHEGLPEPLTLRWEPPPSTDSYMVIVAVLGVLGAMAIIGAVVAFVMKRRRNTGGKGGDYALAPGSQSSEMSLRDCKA
Chain of QL9-loaded H-2 L^d (murine) (P01897 25-362): as above
Chain of H-2 L^d on RENCA cells, naturally loaded (murine) (P01897 25-362): as above
Chain of SIY-loaded H-2 K^b on T2 K^b cells (murine) (P01901 22-369): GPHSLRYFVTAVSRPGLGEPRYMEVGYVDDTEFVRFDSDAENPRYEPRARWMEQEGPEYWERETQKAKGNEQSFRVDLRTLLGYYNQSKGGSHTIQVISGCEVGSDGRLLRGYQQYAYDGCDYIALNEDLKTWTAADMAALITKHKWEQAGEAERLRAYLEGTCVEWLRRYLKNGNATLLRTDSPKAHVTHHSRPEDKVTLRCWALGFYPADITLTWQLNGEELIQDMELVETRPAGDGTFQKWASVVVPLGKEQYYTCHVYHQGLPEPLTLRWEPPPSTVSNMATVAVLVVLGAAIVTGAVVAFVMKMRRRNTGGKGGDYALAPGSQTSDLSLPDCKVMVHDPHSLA
Chain of unloaded H-2 L^d on RMA-S L^d cells (no peptide added) (murine) (P01897 25-309): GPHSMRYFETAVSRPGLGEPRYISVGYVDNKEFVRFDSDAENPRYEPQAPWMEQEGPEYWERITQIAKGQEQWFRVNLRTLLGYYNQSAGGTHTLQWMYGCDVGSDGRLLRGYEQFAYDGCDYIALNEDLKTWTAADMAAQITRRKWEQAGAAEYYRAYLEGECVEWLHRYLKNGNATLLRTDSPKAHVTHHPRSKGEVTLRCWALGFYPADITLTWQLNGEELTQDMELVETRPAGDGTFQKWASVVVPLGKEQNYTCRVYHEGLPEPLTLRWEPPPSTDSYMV

Regarding “soluble divalent 2C TCR/Ig (from UniProt A2KF29)”, the MCF in [1] stood at 36 MCF; in assay [2], 3000 MCF; in assay [3], 1 MCF; in assay [4] it was 1 MCF; in [5], 600 MCF. Further, the concentration at which binding was detected in assay [6] was < 1 nM.

As for 2C TCR on 2C CTL (from UniProt A2KF29), the 2C CTL mediated lysis of peptide-loaded T2 cells (51Cr release), LD50 of the peptide in [7] is 10 ng/mL; in [8], 100 ng/mL; in assay [9], 0.5 ng/mL and 1 ng/mL. The substance further came in with a 2C CTL mediated lysis of p2Ca-loaded T2 L^d cells (51Cr release), LD50 of the peptide in assay [10] of 0.5 ng/mL.

Substance mAb 30.5.7 (antibody) came in with a fold increase of mean channel fluorescence (cells at 27° C. against cells at 37° C.) in assay [11] of 5 fold. Moreover, the fold increase of serologically reactive H-2 L^d on γ-IFN treated cells over untreated cells in assay [12] was 5 to 6 fold.

For the origin of these results see US7973137.
